Test results from the supplement of paper PMC12667976.

B1: library; numbered along this chain (parent)
chain: MATDAALRRLLRLHRTEIAVAVDSAFPLLHALADHDVVPEDKFQETLHLKEKEGCPQAFHALLSWLLTQDSTAILDFWRVLFKDYNLERYGRLQPILDSFPKDVDLSQPRKGRKPPAVPKALVPPPRLPTKRKASEEARAAAPAALTPRGTASPGSQLKAKPPKKPESSAEQQRLPLGNGIQTMSASVQRAVAMSSGDVPGARGAVEGILIQQVFESGGSKKCIQVGGEFYTPSKFEDSGSGKNKARSSSGPKPLVRAKGAQGAAPGGGEARLGQQGSVPAPLALPSDPQLHQKNEDECAVCRDGGELICCDGCPRAFHLACLSPPLREIPSGTWRCSSCLQATVQEVQPRAEEPRPQEPPVETPLPPGLRSAGEEVRGPPGEPLAGMDTTLVYKHLPAPPSAAPLPGLDSSALHPLLCVGPEGQQNLAPGARCGVCGDGTDVLRCTHCAAAFHWRCHFPAGTSRPGTGLRCRSCSGDVTPAPVEGVLAPSPARLAPGPAKDDTASHEPALHRDDLESLLSEHTFDGILQWAIQSMARPAAPFPS

Variants of: B1
Assay: AIRE transcriptional activation functional score (insulin promoter-GFP; nonsense median 0, synonymous median 1) (normalised score); higher = higher AIRE activity (more reporter activation)
Settings: with insulin promoter-GFP reporter in HEK293
Method in brief: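 The functional score compares variant enrichment between select and non-select populations after subtracting wild type. To obtain it, codon-optimized AIRE NNN-codon libraries spanning three regions were placed by Bxb1 recombinase into Flp-In T-REx HEK293 landing-pad cells with an insulin core promoter-GFP reporter. Cells with the top 10% GFP and unselected integrants were tile-sequenced after mCherry+, BFP− integrants had been sorted at day 7 and grown 7 more days. Only variants with 10 counts per million in non-select were kept, rescaled to nonsense median 0 and synonymous median 1, and averaged across biological replicates.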

AIRE transcriptional activation functional score: each site, then its substitutions
R471: T 0.747, W 1.12, M 1.36, I 1.05, Q 0.5, P 0.89, Y 1.13, V 0.217, L 0.799, K 0.921, S 0.674
S474: F 1.12, I 0.0981, T 0.317, N 0.296, R 0.817, P 1.17, D 1.33, E 1.16, C 0.824, V 0.167, Y 0.736, K 0.466, A 0.936, L 0.185, G 0.801, Q 1.02, H 0.593, M 0.192
C475: H 0.16, M -0.469, V 0.0724, E -0.103, N 0.255, R -0.148, I 0.147, L 0.0763, P -0.156, A 0.119, D -0.0916, K -0.353, W -0.0091, F 0.14, S 0.0047, G 0.304, Y 0.0941, T 0.102, Q 0.568
V484: E 0.615, A 0.726, Q 1.72, I 1.45, R 0.893, Y 0.975, G 1.18, T 1.04, W 1.18, F 0.8, L 0.509, D 0.164, S 0.906, C 0.29
C472: R 0.0742, N 0.0317, T -0.165, Q -0.424, L -0.0415, S -0.0588, G 0.0511, V 0.0438, H -0.28, P -0.298, K 0.158, M -0.0949, F 0.226, E 0.216, Y 0.117, W -0.112, I 0.154, A -0.164, D -0.251
D478: G 0.841, P 0.801, M 0.485, F 0.799, T 0.678, N 0.709, S 0.816, L 0.949, C 0.947, H 0.829, W 0.544, K 0.926, I 1.06, A 0.808, Q 0.891, V 0.89, Y 0.902, E 1.09, R 0.412
V487: P 1.04, H 0.858, M 0.568, Q 0.492, L 1.03, K 0.821, R 0.785, S 0.901, C 0.67, T 1.5, N 0.296, Y 1.13, W 0.552, E -0.349, G 0.931, I 1.06, A 1.02, F 0.765
T480: Q 0.203, S 0.786, G 1.11, H 1.18, N 0.784, F 1.32, K 0.954, W 1.13, V 1.45, A 0.564, Y 0.806, L 1, P 1.05, R 0.837, C 1.12, D 0.65, I 0.515
A482: G 1.31, F -0.132, R 0.557, V 1.23, S 1.34, P 1.92, E 1.28, K 1.11, N 1.2, D 1.42, I 1.32, Q 0.773, Y 1.42, T 0.312, L 1.44
V479: G 0.838, W 1.09, L 0.811, H 1.16, K 0.833, M 1.1, F 0.98, R 0.978, T 0.956, Y 0.896, D 0.363, I 0.977, E 1.39, P 0.967, N 1.08, C 1.15, A 0.734
